The DeepSol protein solubility set

Assay: soluble on expression in E. coli; label from the status in PepcDB or PDB records

Sequence | soluble on expression in E. coli
GMDTAKTKPFDEMFLQDEVIRPIYAEYAAWLQDVPHQQLESKRQEAELLFRRVGITFNVYGEDAGAERLIPFDVVPRILSASEWARLSDGAIQRVKALNMFLHDVYHDQEIIKAGIVPSSILANAQYRPEMFGVDVPGGVYAHIAGVDLVRTGENDFYVLEDNLRTPSGVSYMLENRKMMMRLFPELFRRYPVAPVEHYPQVLLNNLRAVAQAGVHEPTVVLLTPGAYNSAYFEHAFIAQQMGIELVEGQDLFVRNNAVYMRTTEGPKRVDVIYRRIDDDFIDPLSFRPDSMLGVPGLLSVYRNGGVTLANAVGTGVADDKDTYIYVPEMIRFYLGEEPILSNVPTYQLSKADDLKYVLDNLAELVVKEVQGSGGYGMLVGPAASKQELEDFRQRILANPANYIAQPTLALSTCPTLVETGIAPRHVDLRPFVLSGKTVSLVPGALCRVALREGSLVVNSSQGGGTKDTWILKD | soluble
RSLKNEELYHQSYDCVCVMFASIPDFKEFYTESDVNKEGLECLRLLNEIIADFDDLLSKPKFSGVEKIKTIGSTYMAATGLSAIPSQEHAQEPERQYMHIGTMVEFAYALVGKLDAINKHSFNDFKLRVGINHGPVIAGVIGAQKPQYDIWGNTVNVASRMDSTGVLDKIQVTEETSLILQTLGYTCTCRGIINVKGKGDLKTYFVNTEMSR | soluble
MGSDKIHHHHHHLDELRSGLDKPSHFRLGLAMWSHSNWQESVYGHGIKQAERLARYATIFNTVEGNTSFYATPAQQTVMNWHSATPDDFRFTFKLPQTITHQRLLQHCGQELKDFFQVMAPLIDKTGIWKIQLPAHFGPENLPVLAQFLNQVPQGLTYGVEVRHAAFFAKGDAERALNRLLIDKKVNRIIMDSRPLFALPPSNAAIIDAHKKKPRVPVHAIATANNPVVRFIGQPDDAVAQLAQQGVSALPKNNDAFFDNWLAQLPLWLAEGREPYLFIHTPDNETAPELAIRLYQTLRSQIAAQIQLAELSLLEKIPEETSTQMGLAW | not soluble
MGSDKIHHHHHHMNIRSRTNNADDLAWVHLIERRKQVELWQFSCLRQSYTLELSPNVMEGVKPEGQLVMVQWSPSNDLQRVKVTLNIHEVTDQAAVNHHFKLVPAGCESIIIDIWGILGLIHDEALRRFYLAVLLNNELMGQFFNARASRSHHHNHACGLLEHSHEVAVTAAMLCWRYNVGPLSVGVAFIGGLLHDIGKIHLFYNADTRDGIAGSHESYNFMVLAEPLELLYRSSPKVFEALSSCLSVKIGRRSEAYIPASMVRLCDNLSMEVCHWRTAFADVPPHHWYAHSAMNDQWYKRLG | not soluble
MGSSHHHHHHSSGLVPRGSHMIMLRIPTRSYCSPSKLIKGVGLSPLKKSLLSKKIKEDIHPSLPVRTRFAPSPTGFLHLGSLRTALYNYLLARNTNGQFLLRLEDTDQKRLIEGAEENIYEILKWCNINYDETPIKQSERKLIYDKYVKILLSSGKAYRCFCSKERLNDLRHSAMELKPPSMASYDRCCAHLGEEEIKSKLAQGIPFTVRFKSPERYPTFTDLLHGQINLQPQVNFNDKRYDDLILVKSDKLPTYHLANVVDDHLMGITHVIRGEEWLPSTPKHIALYNAFGWACPKFIHIPLLTTVGDKKLSKRKGDMSISDLKRQGVLPEALINFCALFGWSPPRDLASKKHECFSMEELETIFNLNGLTKGNAKVDDKKLWFFNKHFLQKRILNPSTLRELVDDIMPSLESIYNTSTISREKVAKILLNCGGSLSRINDFHDEFYYFFEKPKYNDNDAVTKFLSKNESRHIAHLLKKLGQFQEGTDAQEVESMVETMYYENGFSRKVTYQAMRFALAGCHPGAKIAAMIDILGIKESNKRLSEGLQFLQREKK | soluble
GGYSSEQQEDLEAIAPAVVQALQRKKAEEALRLSNIYNRSLIESSLDPLVTIGRDGKITDVNCATEQVTGYPRNDLIKTDFSDYFTEPENARAGYKQVFTDGEVRDYPLEIQHKDGHITPVLYNASVYRDEN | not soluble
MGSDKIHHHHHHMNKKIIEKEILSKVIKKRKEGSNKTNYGRILLICGSQSFGGAAIMASKAVVYSGAGLVTLASDMINRAPFLSSVSEAMFLDYTRTDKLINSIAKSDVILIGSGLEDSDFSFSLLKLVFQNAKTNQLLVLDGTALSMIGKRNLNIPKKPTIIMTPHQGEWQRVSGLSISEQVPVQNYKKMVDLNIDFLVLKSSATEIYALQNPREYKELNIGGPFQAIGGMGDTLAGLIAGFLGQFKNDQISVIQAATYLHSYIARNLSQKQYVTLPTRISEQIPTEMKKIIQTSKY | not soluble
MNIFYEESGQFKIAAIIQKNDATYQVDTPHGKRTKVKANNVFAEFDGDMAAFLENAQAQAADIDTDLLWEVCGEEEFTAEAIAEEYYGHAPTKTELAATLIALYAAPMYFYKKAKGVFKAAPEETLKQALAAIERKKQQDAQIDAWAEALKRGEMPSEIAADLKTILHAPDKQSLTYKAFTKAADALKTSAYELAKKTGGITSIPQYLQDGFEIKYFPKGTGFPDLALPEMPDLPKADVTAFSIDDESTTEVDDALSLTDLDNGTKRVGIHIAAPSLAVKPGDKMEKNIMERLSTVYFPGGKITMLPENWIAAFSLDAGAHRPAVSIYFDVDGEFNVGAPTCKIEAVNIATNLRIQAIEPHFNAETGLDEAGEMMFAHHQDLIWFYQFATALQKARGKYEPDRAPQYDYSIELDEEGKVSVVRRERGSPIDTLVSEMMILANSTWAQMLHDNDLPGLFRVQPTGKVRMSTKSEPHIGMGVQHYGWFTSPLRRAADYINQKQLISLIDDTAEPLYQNSDAELFAALRDFDAAYTAYADFQRQMEAYWSLVYLQQQGTSELTATILKEDLVRIEGLPLVTRATGIPFDALPKSQALFKITELDAEKQFVSLNYIKAVAPAGTTAGNAV | not soluble
MDERFISFVCLLFTMEFQKYRTMHFPRDVYIGHDVLNRVLDVVDQNSRTRDVIIVTGNTTYELAGKKIVEILASSPYEVHLSFAGEANYENLKKIEEETNDVNAGIIIGVGGGTKIDLAKKLAYDKNLPFISIPTSPSHDGIASPRASLRRNGISYSEEGAMPIGVIADTSVMIKAPYRYLAAGAADVISNISAVKDWKLAHRLRGEEFSSSAAAMSEYSAQEVISQVGEIRKYDESSVWLVTKNILASGTAMAIAGNSRPGSGSEHLFAHALEAAGVNNMLHGEMCAMGTIVSLYLHDDNWQKIRDVFESLGVSVKARDYGLKEEVVIEALRRAHAIRPERYTILGESDMSYDAAVKALELTGII | not soluble
QVQLQQSGAELVKPGASVKMSCKASGYTFTTYPIEWMKQNHGKSLEWIGNFHPYSDDTNYNEKFKGKAKLTVEKSSSTVYLEFSRLTSDDSAVYYCAIHYGSAYAMDYWGQGTSVTVSS | soluble
MATAEVLNIGKKLYEGKTKEVYELLDSPGKVLLQSKDQITAGNAARKNHLEGKAAISNKITSCIFQLLQEAGIKTAFTRKCGETAFIAPQCEMIPIEWVCRRIATGSFLKRNPGVKEGYKFYPPKVELFFKDDANNDPQWSEEQLIAAKFCFAGLLIGQTEVDIMSHATQAIFEILEKSWLPQNCTLVDMKIEFGVDVTTKEIVLADVIDNDSWRLWPSGDRSQQKDKQSYRDLKEVTPEGLQMVKKNFEWVAERVELLLKSESQCRVVVLMGSTSDLGHCEKIKKACGNFGIPCELRVTSAHKGPDETLRIKAEYEGDGIPTVFVAVAGRSNGLGPVMSGNTAYPVISCPPLTPDWGVQDVWSSLRLPSGLGCSTVLSPEGSAQFAAQIFGLSNHLVWSKLRASILNTWISLKQADKKIRECNL | soluble
MGSDKIHHHHHHMQPFSSYTVREVIKGGNSMELRSFGNTDIQVSPLGFGAGHIGSDDLSDQEASYILHQALDTGIRLFDTARGYGLSEKRLGQFLKQRRHDVVLSTKVGYDVPRTEDWTFQAVAGGIDQALLTMQTDFIDIVHLHSCSKEILAQDDVIEALERAKQAGKVRLIAYSGDREDLDYAITTGRFDSFQTSVNLYDQRALMDSVPLIHQQQKGIIAKRPIANAPWRFASRPVGQYVEPYWERAQQLDFPLEEASWLETALRFTVFEPGVTSAIIGTANPEHLVQNIRLLEKGALPAERVADLKRRFQEQDENWLQQT | not soluble
MNNIGVPAREVDVVVTGAGQAGLSSAFHLRRTGFEPERDFVVLDHAPRPGGAWQFRWPSLTYRKVHGMHALPGMELTDADPSRPSSEVIAEYFDTYERTFDLRVRRPVDVTAVREGEGGRLLVQTSDGTWATRALINATGTWDRPFWPRYPGQESFRGRQLHTAQYPGPEEFAGQRVVVVGGGASGTQHLMEIAPYAASTTWVTRRPPVFREGPFSEDVGRAAVAMVEERVRRGLPPRSVVSVTGLPLNDAVRRAIADGVLDRLPVFDRITPDGVEWDDGRRVAADVILWATGFRAAIDHLAPLRLRAPGGGIRVEGTRVVADPRIHLVGYGPSASTIGANRAGRAAVRDIRRLLAGEPLTVLEHHHHHH | soluble
